Experimental data as given in patent US20140073518A1.
Like-named read-outs stand apart in the source and are kept apart here. Ends that are not written are not given here.

Legend:
[1] = target: integrins on PC3 cells (adhesion to vitronectin); assay: cell-based or functional assay
[2] = target: integrins on PC3 cells (adhesion to vitronectin); assay: cell-based or functional assay; remark: listed apart in the source
[3] = target: integrins on PC3 cells (adhesion to vitronectin)
[4] = target: human umbilical vein endothelial cells (HUVECs), which express medium levels of the αvβ3, αvβ5 integrins, the Met receptor, and a high level of the α5β1 integrin; assay: HUVEC cell binding assay

B1: EETI2.5F-Aras4 fusion protein (designed binder)
chain: DYKDDDDKPRGCPRPRGDNPPLTCSQDSDCLAGCVCGPNGFCGYAEGQGKRRNTIHEFKKSAKTTLIKIDPALRIKTEKANTADQCANRCTRSKGLPFTCKAFVFDKARKRCLWFPFNSMSSGVKKEFGHEFDLYENKAYIRDCIIGRGRNYRGTVSITKSGIKCQPWSAMIPHEHSFLPSSYRGEDLRENYCRNPRGEEGGPWCYTSDPEVRYEVCDIPQCSEVETRHHHHHH
Half-maximal inhibitor concentration, inhibition of PC3 cell adhesion to human vitronectin [1]: 20 to 40 nM

B2: AgRP mutant 7A (designed binder)
chain: GCVRLHESCLGQQVPCCDPAATCYCSGRGDNDLVCYCR
modifications: ends and bridges not checked; also: four disulfide bonds, pairings not given here
Half-maximal inhibitor concentration, inhibition of PC3 cell adhesion to human vitronectin [1]: 20 to 40 nM

GCPRPRGDNPPLTCKQDSDCLAGCVCGPNGFCG (designed binder) [EETI-II mutant 2.5F]
Half-maximal inhibitor concentration, inhibition of PC3 cell adhesion to human vitronectin [2]: 20 to 40 nM

B3: AgRP7A-Aras4 fusion protein (soluble, FLAG and His tagged) (designed binder)
chain: DYKDDDDKPRGCVRLHESCLGQQVPCCDPAATCYCSGRGDNDLVCYCRYAEGQGKRRNTIHEFKKSAKTTLIKIDPALRIKTEKANTADQCANRCTRSKGLPFTCKAFVFDKARKRCLWFPFNSMSSGVKKEFGHEFDLYENKAYIRDCIIGRGRNYRGTVSITKSGIKCQPWSAMIPHEHSFLPSSYRGEDLRENYCRNPRGEEGGPWCYTSDPEVRYEVCDIPQCSEVETRHHHHHH
Half-maximal inhibitor concentration, inhibition of PC3 cell adhesion to human vitronectin [1]: 20 to 40 nM

B4: knottin 2.5F-Fc (EETI 2.5F fused to the Fc domain of mouse Ig2a) (Fc fusion)
chain: GCPRPRGDNPPLTCKQDSDCLAGCVCGPNGFCGEPRGPTIKPCPPCKCPAPNLLGGPSVFIFPPKIKDVLMISLSPIVTCVVVDVSEDDPDVQISWFVNNVEVHTAQTQTHREDYNSTLRVVSALPIQHQDWMSGKEFKCKVNNKDLPAPIERTISKPKGSVRAPQVYVLPPPEEEMTKKQVTLTCMVTDFMPEDIYVEWTNNGKTELNYKNTEPVLDSDGSYFMYSKLRVEKKNWVERNSYSCSVVHEGLHNHHTTKSFSRTPGK
IC50 (read off the curve), PC3 cell adhesion to vitronectin [3]: 10 nM

B5: knottin 2.5D-Fc (EETI 2.5D fused to the Fc domain of mouse Ig2a) (Fc fusion)
chain: GCPQGRGDWAPTSCKQDSDCRAGCVCGPNGFCGEPRGPTIKPCPPCKCPAPNLLGGPSVFIFPPKIKDVLMISLSPIVTCVVVDVSEDDPDVQISWFVNNVEVHTAQTQTHREDYNSTLRVVSALPIQHQDWMSGKEFKCKVNNKDLPAPIERTISKPKGSVRAPQVYVLPPPEEEMTKKQVTLTCMVTDFMPEDIYVEWTNNGKTELNYKNTEPVLDSDGSYFMYSKLRVEKKNWVERNSYSCSVVHEGLHNHHTTKSFSRTPGK
IC50 (read off the curve), PC3 cell adhesion to vitronectin [3]: 10 nM

B6: AgRp7A-M2.2(D127A) fusion protein (designed binder)
chain: DYKDDDDKPRGCVRLHESCLGQQVPCCDPAATCYCSGRGDNDLVCYCRYAEGQRKRRNTIHEFKKSAKTTLIKIDPALKIKTEKVNTADQCANRCTRNKGLPFTCKAFVFDKARKRCLWFPFNSMSSGVKKEFGHEFDLYENKDYIRACIIGNGRSYRGTVSITKSGIKCQPWSSMIPHEHSFLPSSYRGEDLRENYCRNPRGEEGGPWCFTSDPEVRYEVCDIPQCSEVETRHHHHHH
Kd [4]: 9.4 nM

B7: EETI2.5F-M2.2(D127A) fusion protein (designed binder)
chain: DYKDDDDKPRGCPRPRGDNPPLTCSQDSDCLAGCVCGPNGFCGYAEGQRKRRNTIHEFKKSAKTTLIKIDPALKIKTEKVNTADQCANRCTRNKGLPFTCKAFVFDKARKRCLWFPFNSMSSGVKKEFGHEFDLYENKDYIRACIIGNGRSYRGTVSITKSGIKCQPWSSMIPHEHSFLPSSYRGEDLRENYCRNPRGEEGGPWCFTSDPEVRYEVCDIPQCSEVETRHHHHHH
Kd [4]: 4.7 nM
